PMC13137973

How the values were obtained:
[1] = target: Biotinylated human TNFR2 protein (human) (UniProt P20333); assay: BLI
[2] = target: human immunodeficiency virus 1 (HIV-1) (group M, subtype B, Isolate MN) gp120 Protein (HIV-1 (group M, subtype B, isolate MN)) (UniProt P05877); assay: flow cytometry on cells

recombinant TNFR2 protein (soluble, exogenous), sequence (P20333 23-257): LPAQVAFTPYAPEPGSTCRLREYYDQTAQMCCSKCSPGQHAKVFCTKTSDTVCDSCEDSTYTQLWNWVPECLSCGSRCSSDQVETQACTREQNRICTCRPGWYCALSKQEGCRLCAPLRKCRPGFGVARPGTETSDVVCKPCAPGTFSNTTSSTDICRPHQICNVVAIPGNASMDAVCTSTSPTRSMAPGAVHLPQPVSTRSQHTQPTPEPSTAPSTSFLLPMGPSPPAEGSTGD
Biotinylated human TNFR2 protein (human), sequence (P20333 23-257): as above

“human immunodeficiency virus 1 (HIV-1) (group M, subtype B, Isolate MN) gp120 Protein (from UniProt P05877 30-513) (natural protein)” was tested, and the Kd [1] was 86.5 nM.

For “recombinant TNFR2 protein (soluble, exogenous) (from UniProt P20333-1 23-257) (domain or fragment)”, the IC50 [2] was 107 nM and the reduction in gp120 binding to Jurkat cells [2] was 65%.
